The text below walks through data of paper PMC3458543.

The data set deals with T1, His-Six1-HD (Mus musculus, UniProt Q62231 110-201).
T1 sequence: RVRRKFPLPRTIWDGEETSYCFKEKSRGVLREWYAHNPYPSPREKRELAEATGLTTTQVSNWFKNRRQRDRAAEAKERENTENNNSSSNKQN
Nature of the data set: EMSA. For orientation: In EMSA bound probe runs differently from free probe, usually more slowly.

B1: Myog_mut34 (dsDNA)
DNA 1: GTTAGAGGGGGTATCAGGTTTGTGTGGCGTTGGC
DNA 2: GCCAACGCCACACAAACCTGATACCCCCTCTAAC
As to B1, the binding result is listed as “binds”.
